We go through 47 sequences from the NTF2 design screens of Basanta et al. (2020).

This data set in a line: protease stability score; higher = more stable; yeast display proteolysis, trypsin and chymotrypsin.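 Also: log10 excess protease needed over predicted unfolded state with 0 meaning unfolded.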
“EEEDVRKAKKFIQLLNSNDQENLKTLADPNATFRYGDKHIHGMDRVNQYLDRVDHTMKRDIEVTSMSAQGDHVRIHAIMRFKVNGNPDQIDIIIVVVVENGRIKEVQIRMPEEDKRRVDR” registered a protease stability score of 0.416. Next, “EEEHAKHLNEVMERGDWERLAELADKDVKIRVGDKEYRGRELLERWNRKLYKKVDEVHIDSVHVRNGRITVNMEVNVNGDKVRAQFRIRIHNGKIKHINIQATSEENEERWQEMLD”: 1.5. For “EEEKKNRAHQFLKAVERGDPEELRKQFDPNAHARVGDKRYHGMEEWAKDVMRRVRELRMSIKRLSVDVQGNDVKVNMNLVINRNGKPKEFREVWYFKIHNGHFVELHVQEEP” the value was 0.477.

The sequence “EEEKLEKMVKDVFEAVQKGNMEELKQYLKEDVRFQFGDNRYQGVDQYVKLMKTMTEQGVQFEFKKFQMKDNTVTMETEAKYADHEVRVKAEARYEGGRLDEARVELTEEAKEIYKKG” showed a protease stability score of 1.17.

“EEEKLKKVAEEVFRMVQNGNYDQLAKLGKDNAEFQFADHRLKGKEQYKKYLEELVKRGVQFEVKKAQLKDNTVTMVTKAKYADTEATVTVQAKYEGGKLDRARVKLSEEVKKVLKKG” yielded a protease stability score of 0.065. For “EEEKLQKVAKEMFDAVQKGNVDKLKKLGKEDVEFQFVDHRVKGADHYLQIMKKQLDHGVQFEIKQAQVKDNTVTMTTQVQYGDKTVRVEAKAEYDGGRLQRAEVKLTEEAKEAQKKG” the value was -0.026; for “EEEKLQKVMEKMFRAVQNGNVEQLKKLGKEDVQFQFVDKRVQGAETYAQEMEKTHRQGNQFEIKEAQVKDDKVTMRTVVDYGDQRITVKAEAQYDGGRLDNARVELTEEYREVLKKG”, -0.214; for “EEEKMEKLMKQLFDAVQKGDVDKFVKYLKEDVEFQFGDNRIKGVEEYKRTMEEMHKKGVQFEIKEAQNKDDTVKMRTVVHYGNQTFEVTAEATYDGGVLDKARVEVSEEAKEAFKKG”, 0.992. Next, “EEEKMKKIIKRMFDAVQKGNTEELRKYGKEDVKFEFIDDRNEGPQQYAERMKKMMKHGVQLEIKEVQLKDNTATMYTVVEYGNRRVTAKAEFEYDGGKLKEARVKISEEAKKVIKTG”: 0.119; “EEEKVKKVVKKLFEAVQKGDKKKLQELLHEDVEFQFGVKRVKGAEQYMRTVDELRQRGVQIEVKKYQVKDDKARMVTVVRYGDKTVTMTAEAEYEGGVLKRARVELTDEAKELVKKG”: 0.41.

In turn, “EEEKYQKLAKKVFEAVDKGNYEEVVKLGDENGKFQFGDNRVEGLEQYKRLMEKFEKKGVQVRVRKAQNKDDTATMVTTVKYGDVENTVTAELKYEGGKLKEARVENDEEVKEAVKKG” showed a protease stability score of 0.031. For “EEELADLLRRFLENVKDNDENQLKRNLDPNVRVLVGDKTLHGREDVARWLTKHQREQRVEYRIKEYEIHGNHFNATMQAQNTNNGKPRTFEAVIRVQFRNGRFQVIQIEDKQ” the value was 1.39. For “EEELAKRIRDFLHWVEKGNDDRAMELADPNARVDIGDRDIHGRESIREWVKKMQDKQRVEFDVKHVTVRGNTVVVDLVMRVEHNGQPSETKYQFEAKDNNGHLKFIKVTTIS” the value was 1.3; for “EEELAKSYVELLKQLSEGNEENLKELMDPNARIEVGDKELHGREDIVNTWSKEAREIRIHYEIKHIEQEPGRVTIHARVEVQHDGQPSSKDFNVVFTAKNGRLTKMTVQDDG”, 0.767; for “EEELEEQLHRLLQLIREGNEHKVKEQMDPNVKVVYGDKEYKGRDEVETYLEEVINHWRVNFRVKHITVKGDKVDMKAEASYTHNGRPVNRKLTINAEIHNGRFKTLEFKWDG”, 0.214. Next, “EEELEKEAEKFFRIVHDGNEDDLKRYMDPNVDITVGDKSLTGHSHYARRVKQKKRELRVDIKIESIKADGNRVSATVVWVNNHNGEPQSDAAEVEFNFHNGRVTHIRNDDDK”: 0.151; “EEELERRVEDQFKDWNTGDPDRDREMFDKDATVRVGDKKIKGSSQFRDELEKRRREMEFHVEVKDIQDEPGRVNVTFKFRTNHNGQPKEDTMRFHMTWHNGRIKHMSIHHDG”: 0.641; “EEELFEQWQKIIENQEHGNEDRLQDQFDPNARIDVGDKRIRGRENLAKDQQDKLDNIRFDFQIDHVQDRPGKIVIKYHEVNNHNGKPRSDTVVVHIQAHNGKIQRIDVQKDK”: -0.065. “EEELKKVWTEMQDALENGNEEKIEENFDPNAHFQIGDTHIHGMHEWAHQQFREMKDIRVQVEIESVTFSGDKVNVEYSFTLEIDGRPQSNTATMSARVHNGHFKSVSIRIDPKELKDRQK” gave a protease stability score of 0.601. Next, “EEELLERIKTFVKVYEHGDFKRLHRNLDKDVRVVVGDKHVRGREEAVRDMSEELRNMDQKIDFKTMHITNGKANLDFHFQNTVNGQPRRDRAHLIIRLHNGKFQEIKIQFSEEQERRQKG”: 0.608; “EEELLQRATEFLHAQETNDPKRLKEQADPNARFRVGDKTIHGMDEYVRQLEQTEREMKVSLEIKHVTLTGDKADVEAEVTKDRNGRPDRFRVRYEFEARNGKFVDVRIQEDR”: 0.336.

Turning to “EEELNKVFEDLLEAEKTGDPDKIMRYFDPNARVSYGDKHIHGREEIRKDADRRKEHMRRDIHDYRIDARGDKVRFTADFTQTHNGQPRRHRMRMEVRVKGDKFRHFRIDEDG”, the protease stability score amounted to 0.083. Sequence “EEELQKKASEFIRLQQKGDSEEVMKNVDPNARINVGDKVYDGREQLAKDLHRSKRESRMHFDLKSISVENGKVDVRARMHVVENGQPRRFRVRIIFHQENGRITHFQYHTDD” came in with a protease stability score of 0.258. For “EEELRHTAHELQKAYEENDPEKILENLDPNAQVQIGDRRVHGRHEIRKLMEHFERQARVRVHDVKVDVHGNKINIQVDAEQNHNGEPRSFTVQAEMTMHNGRVKSIDMKIQG” the value was 0.612. In the case of “EEELRNVYRDLLEAEERGNPDDIKRLVDPNARLQIGDKEIHGREHLMRFVEEVRKEIRFEIDRLDVTATGETAKVDARVKQNHNGQPESWHYTVQVKYHNGRIVNLRMRRTS”, the protease stability score stood at 1.31. In the case of “EEELVKKAKTFMKQEEDGNPEKLKEYADENVRMHVGNKEVRGMDQYAEDVRRKREEARFSFKSIDAKASGDKITVRATLTFNVNGKPVEIDMTIILKLHNGRLKFLKVRVDPDEERRLES”, the protease stability score stood at 0.595. For “EEELVKRLKELFEAYQTGDEHQLKDLMDPNVRANIGDKTFHGREKLITHIKRYLDELDFQLKSVTFRLSGDHAVVTFEIEVDVNGVPRSFRFRFHIKMSNGKVTEIEIQFDPERQKKLES” the value was 1.38; for “EEEMVKHIKRVLENNDEERRAQLADKDAHARVGDRHVHGREELEKIVHHIKRRVDHLEVKDVKADGNTIEADVVMQVDGRTMQYNLTIILHNGTIKSVTIKVRNEEQKKLMEELFG”, 0.317; for “EEENFNRANEFMKAVETNDPDKLKHNADENVQITYGDKSYQGRESWAKDLQRKLKHMRWRYEFKSYHDTGDSVDVSLRVMATVNGKPRDFHLRMIIHFKNGKIKNIELRLDPDELDKLES”, 0.648. Next, “EEENQKLAKKFITAVNKGNPKELNENVDPNARLVIGDKTIHGRETLDRWAKKVKDDMRNHWHVTSLRVSNGDIKADVKVVINHNGKPDDFTLDMTMEVHNGKIKRMDARDSQ”: 0.157; “EEENQQIAEDVVDVLRTGDHEKFMHMADPNVKVVIGDKQYRGREDFSKIVKTWKDQMRLHIQIKDVKVEGDEVHVEADYLMKHNGKPVRDTITLVIRFDNGKIKEVQYEVDEDVLRKLES”: 1.14; “EEENSKLMEEIVKAISNGNPDRVRENMDPNARARYGDKRIHGMENILTQIERRWRQIRIQVDDVKLSVENGTINVDIQQRNDNNGQPDNFRLEASASVENGKVKEMNVVKRP”: 0.014. For “EEENVKLVERFLKAVLEGDEDQLRRLMDPNARVRVGDKVLTGRDRVAEHFKERSQQWQFHIDVKHVSVNGDHIIMHFQFSMTVNGQPRSATMTAVFRVHNGRIQQVEFRLPEEDQKTIRG” the value was 0.811; for “EEENVKVAQEIINIEDRGDSDQIHRLFDPNAHWTVGDQDIHGRETWLTKFRKEREEMRVRFRTLHFNAHNGRAVVRVEQEVTHNGTPTTKVYIMKVEFRNGKVKSIVFQSDG”, 0.235. As for “EEEQITKLEEVLKDVETGDPNKLIDNFDPNVRYDYGDKKYHGMTNWAKDVVSKAKEQHVTRHVTDVKVQGNHASMTADVNNDHNGRPHKQKQDIQFTFHNGKIKNVHVQETK”, the protease stability score is -0.667. Next, “EEEQLHNVVRALNQNDFDKFRKLIDPNARVVVGDKSWHGREDLSNYIKQLQDHVDHRTVKDVKWHNGKIHADVEQTVNGKKMRFVFQAVVKGDKVKELNMKFRDERVETLMRKVLR”: 0.14. Regarding “EEEQLKILQELRKALQDNDSERMKELFDEDVKVQVGDKTITGREKVVDDLRRKAEEQRIQYVTMSARAENGHITVRLQFVNTHNGRPHRRERKLDITLHNGKFKSARYDNDG”, the protease stability score is 0.842.

In turn, “EEEQLKTVKQWQENEKTGNEEELKKQADPNAKFRIGDHEVRGMENYAHDVIRRVKDARVDYETISHDVNGDRVVIRAVYRMNHNGRPSSYEYTVHYEMHNGKMKNVTVNKRQ” gave a protease stability score of 0.041. For “EEEQQKVLEELFRVLQEGDEKRAIKLADPNAKFNVGDKQYNGMEEYARSVATEIRNIRVEIETMDARVQGDHVQVNIVVNYKINGQPFRMTIKVRANVHNGQVHELNMHVDEDQQRKLKT” the value was 0.014; for “EEERDKFAKILLHAILTGNEEQFKRLADPNATFNIGDRKIHGMERYTKQMKQEVDRIKIKVESVKISVSGNKITIDMVATFNVNGQPVTIRFVLDVTIKNGRVSELVLRVSDEQLQKMRR”, 0.308; for “EEERQKKAEQWVHAYRHNNEDEIRQLADPNVRFNVGDTRITGRENVMKTLDDQMRHQRVRFHDIQIRVKGDKINITIDAEYESNGRPSRRTLSLEMHLHNGKISHARIDIQG”, -0.128. Next, “EEESAQEFMKNLNTGNFEELNKMADENARMQVGDKTFQGRHQIETLLKTLKKQIDHVSFKSVEMNGDKVDAKVVFQVNGQHFEVIVKVDVRGDRVTHVTYEFTNEDQEERFKRAVQ”: 1.35; “EEESHQVAENIARILQTNDPRRLAELMDENARVRVGDTQLSGREDIEKQMDKEMKEIRVEIKNYEIDAKGEKIDIDVDQVFVHNGKPDRQRVKYDFDLRNGQIKRASVSVHK”: -0.188.

For “EEETVKHLVQLFRTGDWDQLAKEMRDNVEVIIGDKRLHGRENAEQLARILKKHIDHQSYESMTFHNGKLVMKYEFVFNGRRVRARLVVNVHNGKIVNMQLDFTDPRDERLWKKVVE”, the protease stability score stood at 1.66. Next, “EEETVKRMAEHVNHALQENDPKKMNDLFDENVQVDVGDTRIHGREDLTKYVKTFKQRVDQVEIQRVDVQGNTVVILMVLEHNGHRRQVVVIMHFHNGKVKEMRVTDK”: 0.097; “EEEVAKHALEIMITGDPKQIKEMVDENAHVKVGNKEWHGREHMVHWAEQLHTQVDHREVRSMEVNGNTARVDLVVTINGHHIRFILRATIHNGRVQHLSLEVTNEEQQTQWERNLS”: 0.075.

Take “EEEVEDQAKKYAKALHDNDPKTLSKLADKDAEFRYGDHQFHGREEVEKHWEKELKEIEVDWRVVDVKAHNGQVRIRFQAHRHHNGDPKNDNRKASARVTNGRIKKIEWVEDH”: the protease stability score was -0.059.
